Experimental data from the DeepSol protein solubility set.

Experiment: soluble on expression in E. coli; label from the status in PepcDB or PDB records

MSLHFLYYCSEPTLDVKIAFCQGFDKQVDVSYIAKHYNMSKSKVDNQFYSVEVGDSTFTVLKRYQNLKPIGSGAQGIVCAAYDAVLDRNVAIKKLSRPFQNQTHAKRAYRELVLMKCVNHKNIISLLNVFTPQKTLEEFQDVYLVMELMDANLCQVIQMELDHERMSYLLYQMLCGIKHLHSAGIIHRDLKPSNIVVKSDCTLKILDFGLARTAGTSFMMTPYVVTRYYRAPEVILGMGYKENVDIWSVGCIMGEMVRHKILFPGRDYIDQWNKVIEQLGTPCPEFMKKLQPTVRNYVENRPKYAGLTFPKLFPDSLFPADSEHNKLKASQARDLLSKMLVIDPAKRISVDDALQHPYINVWYDPAEVEAPPPQIYDKQLDEREHTIEEWKELIYKEVMNSEEKTKNGVVKGQPSPSGAAVNS
soluble on expression in E. coli: soluble

RVSLLKRKYKRVTTIAERTRRAQSETDRRNYTAASKARTQAQRSSKPQRTRASSRSRRDNSVTVEELMRRRQEQQQTGAKSFAPRPTRTAAQREAAERDLTRRLVNPDPEIHRTRTFDDDLYS
soluble on expression in E. coli: not soluble

MAHHHHHHMGTLEAQTQGPGSMQMNMVETEPVQGCRDFPPETMRLRKYLFDVFHSTARKFGFEEYDSPVLESEELYIRKAGEEITEQMFNFITKGGHRVALRPEMTPSLARQLLAKGRSLLLPAKWYSIPQCWRYEAITRGRRREHYQWNMDIIGVKSVSSEVELVCAACTAMQSLGLSSKDVGVKINSRKILQTVVEQAGVSADKFAPVCVIVDKMEKLPREEVVAQLAAIGLESNVVDAITSTLSLKTIDEIAQRIGEEHEAVRELRDFITQIEAYGFGDWVIFDASVVRGLAYYTGIVFEGFDRDGNFRALCGGGRYDNLLTTYGSPTAVPCVGFGFGDCVIVELLNEKKLLPELHHVVDDLVIPFDETMRPHALSILRRLRDAGRSADIVFDKKKVVQAFNYADRIGALRAVLVAPDEWARGEVRVKMLREGAGREEGANERGIVLPVDKIV
soluble on expression in E. coli: soluble

MSVDPNLLTPYKNTGAANASLRQISEDAFYVVNEVVMKRLGHVPILKGDFHLLPAKVQRFIAEKAELMRPRGIFICDGSQHEADELIDKLIERGMLSKLEAYENNYICRTDPKDVARVESKTWMVTKNKYDTVTHTKEGVEPIMGHWLAPEDLATELDSRFPGCMAGRIMYVIPFSMGPVGGPLSKIGIQLTDSNYVVLSMRIMTRVNNDVWDALGNQDFVRCIHSVGLPRPVKQRVINHWPCNPERVLIAHRPPEREIWSFGSGYGGNSLLGKKCFALRIASNIAKDEGWMAEHMLIMGVTRPCGREHFIAAAFPSACGKTNLAMLEPTLPGWKVRCVGDDIAWMKFGEDGRLYAINPEAGFFGVAPGTSNKTNPMAVATFQKNSIFTNVAETANGEYFWEGLEDEIADKNVDITTWLGEKWHIGEPGVAAHPNSRFAAPANQCPIIHPDWESPQGVPIEAIIFGGRRPQGVPLIYETNSWEHGVFTGSCLKSEATAAAEFTGKTVMHDPMAMRPFMGYNFGKYLQHWLDLKTDSRKMPKIYHVNWFRKDSNNKFLWPGFGDNIRVIDWIIRRLDGEQEIGVETPIGTVPAKGSINLEGLGEVNWDELMSVPADYWKQDAQEIRKFLDEQVGEDLPEPVRAEMDAQEKRVQTL
soluble on expression in E. coli: not soluble

MVDQQDTFAEYFKNWYIFYKKPKVSKVTLNRYQYTYNVINEYFGNKLLKDITRANYQKFIVKYGQNHSPNTMKMINNCIKACVKNAVYDEEIKKDFTYNIELISNRDNVVQLEHHHHHH
soluble on expression in E. coli: soluble

SKGKLGEKISQFKIVEELKAKGLYAYFRPIQSKQDTEVKIDGRRVLMFGSNSYLGLTTDTRIIKAAQDALEKYGTGCAGSRFLNGTLDIHVELEEKLSAYVGKEAAILFSTGFQSNLGPLSCLMGRNDYILLDERDHASIIDGSRLSFSKVIKYGHNNMEDLRAKLSRLPEDSAKLICTDGIFSMEGDIVNLPELTSIANEFDAAVMVDDAHSLGVIGHKGAGTASHFGLNDDVDLIMGTFSKSLASLGGFVAGDADVIDFLKHNARSVMFSASMTPASVASTLKALEIIQNEPEHIEKLWKNTDYAKAQLLDHGFDLGATESPILPIFIRSNEKTFWVTKMLQDDGVFVNPVVSPAVPAEESLIRFSLMATHTYDQIDEAIEKMVKVFKQAEVETLI
soluble on expression in E. coli: soluble

MGHHHHHHSHMNSRRRKAQFFLGTTNKRAKTVVLHIDGLDDTSRRNLCEEALLKIKGVISFTFQMAVQRCVVRIRSDLKAEALASAIASTKVMKAQQVVKSESGEEMLVPFQDTPVEVEQNTELPDYLPEDESPTKEQDKAVSRVGSHPEGGASWLSTAANFLSRSFYW
soluble on expression in E. coli: not soluble

SRPVGPLARRGCCSAPGTPEVPLTRERYPVQRLPFSTVSKQDLAAFERIVPGGVVTDPEALQAPNVDWLRTLRGCSKVLLRPRTSEEVSHILRHCHERNLAVNPQGGNTGMVGGSVPVFDEIILSTARMNRVLSFHSVSGILVCQAGCVLEELSRYVEERDFIMPLDLGAKGSCHIGGNVATNAGGLRFLRYGSLHGTVLGLEVVLADGTVLDCLTSLRKDNTGYDLKQLFIGSEGTLGIITTVSILCPPKPRAVNVAFLGCPGFAEVLQTFSTCKGMLGEILSAFEFMDAVCMQLVGRHLHLASPVQESPFYVLIETSGSNAGHDAEKLGHFLEHALGSGLVTDGTMATDQRKVKMLWALRERITEALSRDGYVYKYDLSLPVERLYDIVTDLRARLGPHAKHVVGYGHLGDGNLHLNVTAEAFSPSLLAALEPHVYEWTAGQQGSVSAEHGVGFRKRDVLGYSKPPGALQLMQQLKALLDPKGILNPYKTLPSQA
soluble on expression in E. coli: soluble

MKVVVIGGGWSGVAAAIEAKKMGADVVLFEKTDLLLGLGNVGGIMRNNGRYTASEELIAMGGGDLINITDKVSRHKDIPFPGHEHAWLYDVNLVEGEVKRYVESLGIETKMVSRIIDIKQEDNKILGVYTSDGQYYNGDVFIETTGSTGPMGNCLRYGNGCSMCILRCPSFGPRISISSRCGVEDIQGERVGDELGAFSGSCKLAKETLSEEIRKELEEKGCVVLKIPKEDVNYDKLNTKVCQQYALKEFAENVVLLDTGHAKLMTTYYPLEKLRKIKGLENAKYVDPYAGGKGNSIRYLSVAPRDDNMKVKGVTNLFCAGEKSGLFVGHTEAIVTGTLAGHNAVRHALGIPYLILPRATVLGDIIAFANEESQSREGKKNRYTFAGSVYFNRMKELGLYTIDKDEIQKRVAQLNLDGVFSKKLMLEHHHHHH
soluble on expression in E. coli: not soluble

MATTKRVLYVGGLAEEVDDKVLHAAFIPFGDITDIQIPLDYETEKHRGFAFVEFELAEDAAAAIDNMNESELFGRTIRVNLAKPMRIKE
soluble on expression in E. coli: soluble

MAPKFTLNQERDNDRERTRASYNNDRRRNDYDPRACYKCGKLGHFARSCHVVTQPTTAYITCYFCSEEGHRSNGCPNKRTDQVNPKGHCYWCGNQDHRFNLIIWRSRCLFRLMKPKYAF
soluble on expression in E. coli: soluble

MEKDNICYKTYVEILERELVPAMGCTEPIALAYCSAKARSVLGVLPDKVLVEVSGNIVKNVKSVIVPNSGGRRGIEAAAAVGILAGREDLELEVLSKVTDEDIAGLGAYMEKVEITVAPLDTPYLLDMAVTAKKDGSRARVRIAQEHTNIIEIEKDGKILFEKQAGEEEDCDAPDYSLLTIEKIYDFADTADLEDVKAVLDRQIAYNTAIAEEGLRGDYGANIGRVLMEEYGDRIENRAKAMAAAGSDARMNGCDLPVIINSGSGNQGMTASLPVIEYAKELKCSREKLYRALLLSNLVTLHQKTGIGRLSAYCGAVSAGAGAGAGIAYLEGGDLKVVAHTLVNALAITSGIVCDGAKASCAAKIAVAVDTGILGYKMYKKGQQFYGGDGLVAKGVENTIRNIGRLGKEGMKETDKEIIRIMTE
soluble on expression in E. coli: not soluble

MSLIASIGELLIDLISVEEGDLKDVRLFEKHPGGAPANVAVGVSRLGVKSSLISKVGNDPFGEYLIEELSKENVDTRGIVKDEKKHTGIVFVQLKGASPSFLLYDDVAYFNMTLNDINWDIVEEAKIVNFGSVILARNPSRETVMKVIKKIKGSSLIAFDVNLRLDLWRGQEEEMIKVLEESIKLADIVKASEEEVLYLENQGVEVKGSMLTAITLGPKGCRLIKNETVVDVPSYNVNPLDTTGAGDAFMAALLVGILKLKGLDLLKLGKFANLVAALSTQKRGAWSTPRKDELLKYKEAREVLAEGHHHHHH
soluble on expression in E. coli: soluble

MAHHHHHHMERFRSEDVAEGAFTLNLDECGASLIELHAPLNGLAFMMQDAVVAQLAMGSTLAGSDAAKAPQDDHDGTTVNFRTLSTSAAGAIDALLSEMSARRVHFVSGVVTDAMLDVEGVTIIDPLPLEPRLNRFQRNMIRLSLTLEQQFFLLAEYLGNTSGGCAHGVIGSGEAAALAVDVWRVAGFCDALVDHLWWRGRCVCGGPFSWRCRWDCAARGVARRCARACRVLGVFTPAR
soluble on expression in E. coli: not soluble

MAQHTYDEESVQELLGWAKKMLETKNYPTEKYQVNACTSIIDGKLYLESLISMISKNWENPTFHPTIEQLWEYREKWEGQKE
soluble on expression in E. coli: not soluble

MEKSSSNFIQNGKRDHGGKLRQYNYKLEEAEYRYFTEERLFYRRRNPVEKIAQRIPKPQIEGTFTWSDELRCNYDGNTQFLPVEALEGCLPLEKLNQHLKPGFRLEVVVRPSLDPSITTKSPEIRWFGEVTAVCGFYVAIKFVGELNRRPCWFHMLSEDIFDIGSGLKQDPAMKWLQYRPLSLLKPMQCPKFWRRGSTPAPPVPRPTEEILDEFQAELHENRISEPKIFDQLRHLAHRPSRFRLNQRVELLNYLEPTEIRVARILRILGRRLMVMVTAQDYPEDLPSVEAKDRQVQHENVEFWVDESSFFLFPVGFAMINGLRTKATEGYLEHSRRIAEGSGTEKLNLLKVGQKFELLDPLSDLRQSFCVATIRKICKTPGFLIISPDETESDDESFPIHIDNHFMHPVGYAEKFGIKLDRLAGTEPGKFKWEGYLKEKQAEKIPDEMLRPLPSKERRHMFEFGRVLEAVGQNETYWISPASVEEVHGRTVLIEFQGWDSEFSELYDMDSHDLLPAGWCEFFNFKLRHPVLPVNDPNAENGEYD
soluble on expression in E. coli: not soluble

SGGGGGILEKLGDICFSLRYVPTAGKLTVVILEAKNLKKMDVGGLSDPYVKIHLMQNGKRLKKKKTTIKKNTLNPYYNESFSFEVPFEQIQKVQVVVTVLDYDKIGKNDAIGKVFVGYNSTGAELRHWSDMLANPRRPIAQWHTLQVEEEVDAMLAVKK
soluble on expression in E. coli: soluble

MGSDKIHHHHHHMILQVQPAKLIKRYKRFLADIELNCGEETTIHCANTGAMKGCAEPDDTVWYTTSTNTKRKYPFSWEITQSQDDHFICVNTLRANQLVEEALHLDLIKELSGFNELKREVKYGNENSRVDFLATYNNAPDTYIEVKSVTLLESGHGYFPDAVTTRGQKHLRELMDMVAQGHKAVLLFAVLHSGINDISAASHVDPIYAKLLKEARLAGVEIIAYKAGFSLQLGELDVKLVEKIPFIER
soluble on expression in E. coli: not soluble

MKKTLTVTLSSIAAFIAINTAANAQESETSQLDTYATGDVITNQSNLGIYIVKPGDSLYKIALEHNLSLEELYALNPGVEPLIFPGDEIVVSETAFEQFNNTNTFVNYETNYIPVGYNNVSTDTSNTTYDNYDSESTDTYSVSNAYDGLRSVSNSGNLYTTGQCTYYAFDRRAELGKPIGSLWGNASNWAYSANQAGFNVDHTPEVGAVFQSGPGQNGAGAYGHVGVVESINSNGSVTVSEMNWNGGVNVKSYRTISNPNSYNYIHLEHHHHHH
soluble on expression in E. coli: not soluble

SHPDLNKLLELWPHIQEYQDLALKHGINDIFQDNGGKLLQVLLITGLTVLPGREGNDAVDNAGQEYELKSINIDLTKGFSTHHHMNPVIIAKYRQVPWIFAIYRGIAIEAIYRLEPKDLEFYYDKWERKWYSDGHKDINNPKIPVKYVMEHGTKIYGSGGSHPDLNKLLELWPHIQEYQDLALKHGINDIFQDNGGKLLQVLLITGLTVLPGREGNDAVDNAGQEYELKSINIDLTKGFSTHHHMNPVIIAKYRQVPWIFAIYRGIAIEAIYRLEPKDLEFYYDKWERKWYSDGHKDINNPKIPVKYVMEHGTKIYGSHHHHHH
soluble on expression in E. coli: soluble
